Experimental findings from paper PMC10817169, “The universal suppressor mutation restores membrane budding defects in the HSV-1 nuclear egress complex by stabilizing the oligomeric lattice” (PLOS Pathogens, 2024) are described below.

First the molecules themselves.
B5: UL31 51-306 R229L (SUP_(UL31)Δ50-306) (domain or fragment)
chain: QELCLHERQRYRGLFAALAQTPSEEIAIVRSLSVPLVKTTPVSLPFCLDQTVADNCLTLSGMGYYLGIGGCCPACNAGDGRFAATSREALILAFVQQINTIFEHRAFLASLVVLADRHNAPLQDLLAGILGQPELFFVHTILRGGGACDPRLLFYPDPTYGGHMLYVIFPGTSAHLHYLLIDRMLTACPGYRFVAHVWQSTFVLVVRRNAEKPTDAEIPTVSAADIYCKMRDISFDGGLMLEYQRLYATFDEFPPP
notes: also called R229L_(UL31)Δ50-306; UL31 chain of NEC185Δ50-SUP_(UL31)

Series [1] deals with B5. As to the kind of experiment: crystal structure. Particulars: both partners purified.
The series “crystal structure” deals with the molecule itself. As to the kind of experiment: crystal structure.
Series [2] has as its target T1, UL31 1-306 (wild type) (HSV-1, UniProt P10215 1-306).
T1 construct: also called WT UL31; UL31 chain of NEC220
T1 sequence: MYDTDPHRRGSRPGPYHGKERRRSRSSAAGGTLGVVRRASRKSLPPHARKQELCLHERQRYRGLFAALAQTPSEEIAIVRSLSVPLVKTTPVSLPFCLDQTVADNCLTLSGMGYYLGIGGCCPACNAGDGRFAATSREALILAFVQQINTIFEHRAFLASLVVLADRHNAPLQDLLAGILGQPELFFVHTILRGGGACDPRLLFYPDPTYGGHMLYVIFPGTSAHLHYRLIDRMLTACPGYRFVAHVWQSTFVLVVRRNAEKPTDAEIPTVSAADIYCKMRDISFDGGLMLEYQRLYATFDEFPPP
As to the kind of experiment: cryo-EM structure; cryoET with sub-tomographic averaging of membrane-bound coats; 1 mg/mL NEC with 400 and 800 nm LUVs (POPC:POPS:POPA = 3:1:1), 30 min on ice. To be noted: both partners purified.

Series [3] deals with the molecule itself. Described as above.
The next series addresses T2, UL31 1-306 R229L_(UL31) (HSV-1, UniProt P10215 1-306, R229L).
T2 construct: also called SUP_(UL31); UL31 chain of NEC220-SUP_(UL31)
T2 sequence: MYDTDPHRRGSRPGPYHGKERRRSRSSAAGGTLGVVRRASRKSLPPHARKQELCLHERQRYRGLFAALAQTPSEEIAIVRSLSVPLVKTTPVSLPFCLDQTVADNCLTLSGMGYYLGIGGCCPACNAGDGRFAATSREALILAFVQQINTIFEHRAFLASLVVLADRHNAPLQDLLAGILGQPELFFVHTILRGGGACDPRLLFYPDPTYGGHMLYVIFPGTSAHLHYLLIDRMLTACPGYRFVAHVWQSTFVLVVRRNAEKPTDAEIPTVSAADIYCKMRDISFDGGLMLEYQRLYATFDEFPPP
The series can be described thus: SEC; co-expressed and co-purified UL31/UL34, tags cleaved, equimolar amounts loaded on Superdex 75 10/300 in 20 mM Na HEPES pH 7.0, 100 mM NaCl, 1 mM TCEP, 4°C; fractions analysed by SDS-PAGE. To be noted: both partners purified. (In gel filtration, larger molecules generally elute earlier.)

In series [4] the target is T1, UL31 1-306 (wild type). The series is described as above. To be noted: both partners purified.

B1: UL34 15-185 D35A_(UL34)/E37A_(UL34) (domain or fragment)
chain: AFEGLVQRIRLIVPSTLRGGAGAAGPYSPSSLPSRCAFQFHGHDGSDESFPIEYVLRLMNDWAEVPCNPYLRIQNTGVSVLFQGFFHRPHNAPGGAITPERTNVILGSTETTGLSLGDLDTIKGRLGLDARPMMASMWISCFVRMPRVQLAFRFMGPEDAGRTRRILCRAA
notes: also called DN_(UL34); UL34 chain of NEC185Δ50-DN_(UL34)/SUP_(UL31); not shown: GST, N-terminal, cleaved
Regarding B1, in series [1], the binding result was “binds”.

B2: NEC185Δ50-SUP_(UL31) (complex)
chain 1: QELCLHERQRYRGLFAALAQTPSEEIAIVRSLSVPLVKTTPVSLPFCLDQTVADNCLTLSGMGYYLGIGGCCPACNAGDGRFAATSREALILAFVQQINTIFEHRAFLASLVVLADRHNAPLQDLLAGILGQPELFFVHTILRGGGACDPRLLFYPDPTYGGHMLYVIFPGTSAHLHYLLIDRMLTACPGYRFVAHVWQSTFVLVVRRNAEKPTDAEIPTVSAADIYCKMRDISFDGGLMLEYQRLYATFDEFPPP
chain 2: AFEGLVQRIRLIVPSTLRGGDGEAGPYSPSSLPSRCAFQFHGHDGSDESFPIEYVLRLMNDWAEVPCNPYLRIQNTGVSVLFQGFFHRPHNAPGGAITPERTNVILGSTETTGLSLGDLDTIKGRLGLDARPMMASMWISCFVRMPRVQLAFRFMGPEDAGRTRRILCRAA
notes: also called NEC-SUP_(UL31) crystallization construct; source: E. coli BL21(DE3) LoBSTr, co-expressed, purified (Ni Sepharose, Glutathione Sepharose, tags cleaved, Talon, Superdex 75)
What is called stoichiometry N is a count of units in the complex or per binding partner. With B2, the “stoichiometry N” value in the series “crystal structure” was 6.

B3: NEC185Δ50-DN_(UL34)/SUP_(UL31) (complex)
chain 1: QELCLHERQRYRGLFAALAQTPSEEIAIVRSLSVPLVKTTPVSLPFCLDQTVADNCLTLSGMGYYLGIGGCCPACNAGDGRFAATSREALILAFVQQINTIFEHRAFLASLVVLADRHNAPLQDLLAGILGQPELFFVHTILRGGGACDPRLLFYPDPTYGGHMLYVIFPGTSAHLHYLLIDRMLTACPGYRFVAHVWQSTFVLVVRRNAEKPTDAEIPTVSAADIYCKMRDISFDGGLMLEYQRLYATFDEFPPP
chain 2: AFEGLVQRIRLIVPSTLRGGAGAAGPYSPSSLPSRCAFQFHGHDGSDESFPIEYVLRLMNDWAEVPCNPYLRIQNTGVSVLFQGFFHRPHNAPGGAITPERTNVILGSTETTGLSLGDLDTIKGRLGLDARPMMASMWISCFVRMPRVQLAFRFMGPEDAGRTRRILCRAA
notes: also called NEC-DN_(UL34)/SUP_(UL31) crystallization construct; NEC185Δ50-DN34/SUP31; source: E. coli BL21(DE3) LoBSTr, co-expressed, purified (Ni Sepharose, Glutathione Sepharose, tags cleaved, Talon, Superdex 75)
B3: in the series “crystal structure”, the binding result is listed as “binds”.

B4: UL34 15-185 (domain or fragment)
chain: AFEGLVQRIRLIVPSTLRGGDGEAGPYSPSSLPSRCAFQFHGHDGSDESFPIEYVLRLMNDWAEVPCNPYLRIQNTGVSVLFQGFFHRPHNAPGGAITPERTNVILGSTETTGLSLGDLDTIKGRLGLDARPMMASMWISCFVRMPRVQLAFRFMGPEDAGRTRRILCRAA
notes: also called UL34 chain of NEC185Δ50-SUP_(UL31); not shown: GST, N-terminal, cleaved
For the molecule B4, the binding result (in the series “crystal structure”; in series [1]) was “binds” each time.
On to B5, for which the binding result in “crystal structure” was “binds”.

B6: UL34 1-220 (wild type) (domain or fragment)
chain: MAGLGKPYTGHPGDAFEGLVQRIRLIVPSTLRGGDGEAGPYSPSSLPSRCAFQFHGHDGSDESFPIEYVLRLMNDWAEVPCNPYLRIQNTGVSVLFQGFFHRPHNAPGGAITPERTNVILGSTETTGLSLGDLDTIKGRLGLDARPMMASMWISCFVRMPRVQLAFRFMGPEDAGRTRRILCRAAEQAITRRRRTRRSREAYGAEAGLGVAGTGFRARGD
notes: also called UL34 chain of NEC220; not shown: GST, N-terminal, cleaved
B6: the binding result with UL31 1-306 (wild type) [2] is “binds”.

B7: NEC220 (wild-type HSV-1 nuclear egress complex, UL31 1-306 with UL34 1-220) (complex)
chain 1: MYDTDPHRRGSRPGPYHGKERRRSRSSAAGGTLGVVRRASRKSLPPHARKQELCLHERQRYRGLFAALAQTPSEEIAIVRSLSVPLVKTTPVSLPFCLDQTVADNCLTLSGMGYYLGIGGCCPACNAGDGRFAATSREALILAFVQQINTIFEHRAFLASLVVLADRHNAPLQDLLAGILGQPELFFVHTILRGGGACDPRLLFYPDPTYGGHMLYVIFPGTSAHLHYRLIDRMLTACPGYRFVAHVWQSTFVLVVRRNAEKPTDAEIPTVSAADIYCKMRDISFDGGLMLEYQRLYATFDEFPPP
chain 2: MAGLGKPYTGHPGDAFEGLVQRIRLIVPSTLRGGDGEAGPYSPSSLPSRCAFQFHGHDGSDESFPIEYVLRLMNDWAEVPCNPYLRIQNTGVSVLFQGFFHRPHNAPGGAITPERTNVILGSTETTGLSLGDLDTIKGRLGLDARPMMASMWISCFVRMPRVQLAFRFMGPEDAGRTRRILCRAAEQAITRRRRTRRSREAYGAEAGLGVAGTGFRARGD
Consider B7, for which, in series [3], the binding result was “binds”.

B8: NEC220-DN_(UL34)/SUP_(UL31) (complex)
chain 1: MYDTDPHRRGSRPGPYHGKERRRSRSSAAGGTLGVVRRASRKSLPPHARKQELCLHERQRYRGLFAALAQTPSEEIAIVRSLSVPLVKTTPVSLPFCLDQTVADNCLTLSGMGYYLGIGGCCPACNAGDGRFAATSREALILAFVQQINTIFEHRAFLASLVVLADRHNAPLQDLLAGILGQPELFFVHTILRGGGACDPRLLFYPDPTYGGHMLYVIFPGTSAHLHYLLIDRMLTACPGYRFVAHVWQSTFVLVVRRNAEKPTDAEIPTVSAADIYCKMRDISFDGGLMLEYQRLYATFDEFPPP
chain 2: MAGLGKPYTGHPGDAFEGLVQRIRLIVPSTLRGGAGAAGPYSPSSLPSRCAFQFHGHDGSDESFPIEYVLRLMNDWAEVPCNPYLRIQNTGVSVLFQGFFHRPHNAPGGAITPERTNVILGSTETTGLSLGDLDTIKGRLGLDARPMMASMWISCFVRMPRVQLAFRFMGPEDAGRTRRILCRAAEQAITRRRRTRRSREAYGAEAGLGVAGTGFRARGD
notes: also called NEC-DN_(UL34)/SUP_(UL31)
Turning to B8, the binding result in series [3] is reported as “binds”.

B9: NEC220-SUP_(UL31) (complex)
chain 1: MYDTDPHRRGSRPGPYHGKERRRSRSSAAGGTLGVVRRASRKSLPPHARKQELCLHERQRYRGLFAALAQTPSEEIAIVRSLSVPLVKTTPVSLPFCLDQTVADNCLTLSGMGYYLGIGGCCPACNAGDGRFAATSREALILAFVQQINTIFEHRAFLASLVVLADRHNAPLQDLLAGILGQPELFFVHTILRGGGACDPRLLFYPDPTYGGHMLYVIFPGTSAHLHYLLIDRMLTACPGYRFVAHVWQSTFVLVVRRNAEKPTDAEIPTVSAADIYCKMRDISFDGGLMLEYQRLYATFDEFPPP
chain 2: MAGLGKPYTGHPGDAFEGLVQRIRLIVPSTLRGGDGEAGPYSPSSLPSRCAFQFHGHDGSDESFPIEYVLRLMNDWAEVPCNPYLRIQNTGVSVLFQGFFHRPHNAPGGAITPERTNVILGSTETTGLSLGDLDTIKGRLGLDARPMMASMWISCFVRMPRVQLAFRFMGPEDAGRTRRILCRAAEQAITRRRRTRRSREAYGAEAGLGVAGTGFRARGD
notes: also called NEC-SUP_(UL31)
On to B9, for which the binding result in series [3] is listed as “binds”.

B10: UL34 1-220 K137A_(UL34) (domain or fragment)
chain: MAGLGKPYTGHPGDAFEGLVQRIRLIVPSTLRGGDGEAGPYSPSSLPSRCAFQFHGHDGSDESFPIEYVLRLMNDWAEVPCNPYLRIQNTGVSVLFQGFFHRPHNAPGGAITPERTNVILGSTETTGLSLGDLDTIAGRLGLDARPMMASMWISCFVRMPRVQLAFRFMGPEDAGRTRRILCRAAEQAITRRRRTRRSREAYGAEAGLGVAGTGFRARGD
notes: also called UL34 chain of NEC220-K137A_(UL34); not shown: GST, N-terminal, cleaved
B10: the binding result with UL31 1-306 R229L_(UL31) and in the series with UL31 1-306 (wild type) [4] was “binds” in each case.

B11: UL34 1-220 R139A_(UL34) (domain or fragment)
chain: MAGLGKPYTGHPGDAFEGLVQRIRLIVPSTLRGGDGEAGPYSPSSLPSRCAFQFHGHDGSDESFPIEYVLRLMNDWAEVPCNPYLRIQNTGVSVLFQGFFHRPHNAPGGAITPERTNVILGSTETTGLSLGDLDTIKGALGLDARPMMASMWISCFVRMPRVQLAFRFMGPEDAGRTRRILCRAAEQAITRRRRTRRSREAYGAEAGLGVAGTGFRARGD
notes: also called UL34 chain of NEC220-R139A_(UL34); not shown: GST, N-terminal, cleaved
As to B11, the binding result with UL31 1-306 (wild type) [4] is on record as “binds”.

B12: UL34 1-220 K137A_(UL34)/R139A_(UL34) (domain or fragment)
chain: MAGLGKPYTGHPGDAFEGLVQRIRLIVPSTLRGGDGEAGPYSPSSLPSRCAFQFHGHDGSDESFPIEYVLRLMNDWAEVPCNPYLRIQNTGVSVLFQGFFHRPHNAPGGAITPERTNVILGSTETTGLSLGDLDTIAGALGLDARPMMASMWISCFVRMPRVQLAFRFMGPEDAGRTRRILCRAAEQAITRRRRTRRSREAYGAEAGLGVAGTGFRARGD
notes: also called UL34 chain of NEC220-K137A_(UL34)/R139A_(UL34); not shown: GST, N-terminal, cleaved
Regarding B12, the binding result in the series with UL31 1-306 R229L_(UL31) and with UL31 1-306 (wild type) [4] was “binds” in each case.
